# Test system: TO-3-N3 (biotin conjugate)
# Assay: pull-down binding Z-score (relative to library population); higher = stronger binding
# Details: RNA library: Library-2
# How it was run: (§1)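 Binding is given as a Z-score against the library mean and standard deviation, calculated after removing the beads-only signal and averaging barcoded replicate probes without their highest and lowest values. Cy5- or Cy3-end-labelled RNA library (1 μg) was heat-folded in phosphate/NaCl/KCl buffer and incubated 60 min at 25 °C with streptavidin beads bearing 100 pmol of biotin-conjugated small molecule. After three washes, RNA eluted in hot SDS was hybridised to a DNA barcode microarray for 20 h at 55.5 °C.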
row,Sequence,pull-down binding Z-score
1,CUGUUGUGCCUAAUUCAGAG [hsa-mir-296],-0.165
2,CUGUUGUUUCAGCUCGACAACAACAG [hsa-mir-3937],-0.212
3,CUGUUUCUGGUGAAAUAUUCAAACAG [hsa-mir-4433a],0.27
4,CUGUUUGUUGUCUGAGAAAAAACA [hsa-mir-520g_520h],-0.638
5,CUUAAGUGGUUCGGGUAAAUCACUUUAA [hsa-mir-3977],-0.623
6,CUUAAUAGAUUAAUAUUUGUAAG [hsa-mir-506],-0.743
7,CUUACUGCCCGGGCCGCCCUCAGUAA [hsa-mir-212],0.545
8,CUUACUGUACACGUGGCUGGCAAG [hsa-mir-4428],-0.0149
9,CUUAGAUUUUUCCAUCUUUGUAUCUAG [hsa-mir-29b-2],-0.805
10,CUUAGUAGGUGAUAGCAUGACUGAC [hsa-mir-5002],0.324
11,CUUCACUGGUGCAGUAAGAAG [hsa-mir-7853],-0.0978
12,CUUCAGAGCAGGGUUUGGUCUGUGCUUCUCUG [hsa-mir-6719],-0.415
13,CUUCAGCCCCAGGAAGCCUUGGUCGGGGGCAGGAG [hsa-mir-647],0.309
14,CUUCCCAUUUAAAAGUAAUGGCACA [hsa-mir-603],0.893
15,CUUCCUGAGCACGCUCAUGAUGAGCAAACUGAGCCUCUAAG [hsa-mir-3653],0.463
16,CUUCGCGCUAGUUUGUUUGUGUUAAG [hsa-mir-6077],-0.0696
17,CUUCGGUAUUCAUCAAAAAUACCAAAG [hsa-mir-4735],-0.683
18,CUUCUGCUUCCUCUUAGCGCAGGAG [hsa-mir-1914],-0.591
19,CUUCUUACUGCACCAGUGAAG [hsa-mir-5683],-0.186

row,Sequence,pull-down binding Z-score
1,CUUGAUUUAAAUGUCCAUACAAUUAAG [hsa-mir-124-1],-0.0597
2,CUUGAUUUAAUGUCAUACAAUUAAG [hsa-mir-124-2],-0.687
3,CUUGAUUUAAUGUCUAUACAAUUAAG [hsa-mir-124-3],-0.0185
4,CUUGCAGAAUUAAUGGAAUGCUG [hsa-mir-676],0.253
5,CUUGCGGGGCCUUCGCCGCACACAAG [hsa-mir-99b],0.198
6,CUUGCUGUGACAUGACAAAAAUAAG [hsa-mir-302d],0.449
7,CUUGCUUUGAAACUAAAGAAGUAAG [hsa-mir-302a],-0.0041
8,CUUGGCACCUUUGGCCUUAG [hsa-mir-4540],0.0499
9,CUUGGCUUCAAUUUACUCCCAGG [hsa-mir-4446],0.257
10,CUUGGGCCCAUUCCUUUCCUUACCCUAC [hsa-mir-6798],0.268
11,CUUGUGGUAUUAGUCCGCACAAG [hsa-mir-100],0.418
12,CUUGUGGUGAAGUGGACCGCACAAG [hsa-mir-99a],-0.203
13,CUUUAGCUAUUCUGAAUGCCUAAAG [hsa-mir-4662a],-0.298
14,CUUUAGGCAUUCAGAAUAGCUAAAG [hsa-mir-4662b],-0.451
15,CUUUCCUCAGCUGAUUUCUUUCUGGGGAGAG [hsa-mir-5186],-0.144
16,CUUUCCUUUUUGUCUGUACUGGGAAG [hsa-mir-373],-0.365
17,CUUUCUGUGACUUUAAAAGUAAG [hsa-mir-302b],-0.538
18,CUUUCUGUUGGCUAAAAGAAAAGAAAG [hsa-mir-518e],-0.396
19,CUUUCUGUUGUCUAAAAGAAAAGAAAG [hsa-mir-520d],-0.444

row,Sequence,pull-down binding Z-score
1,CUUUCUGUUGUCUAAAAGAAAAGAACG [hsa-mir-521-1],-0.211
2,CUUUCUGUUGUCUGAAAGAAAAGAAAA [hsa-mir-522],-0.109
3,CUUUCUGUUGUCUGAAAGAAAAGAAAG [hsa-mir-520c_520b_519c_519b],0.176
4,CUUUCUGUUGUCUGAAAGAAAGGAAAG [hsa-mir-519a-1_519a-2],-0.467
5,CUUUCUGUUGUCUGAGAGAAAAGAAAG [hsa-mir-520a],-0.684
6,CUUUGCUACUGCUC [hsa-mir-6072],-0.202
7,CUUUGGUGGCUAUGGUUGACUGGGCCACUCAGAG [hsa-mir-4468],-0.366
8,CUUUGUCAUUAAAACCAAUAACAAAA [hsa-mir-548ap],0.331
9,CUUUGUCUGACUACAAUAUUCAAAAG [hsa-mir-4426],0.0486
10,CUUUGUGAUUUUAUGAGAACAAAG [hsa-mir-3173],-0.938
11,CUUUUAGAGUAAUUGUGAAACUGUUUUUCAAAG [hsa-mir-562],-0.531
12,CUUUUAUAUCAAGGCACAUAAAAG [hsa-mir-3910-1],-0.493
13,CUUUUAUGUGCCUUGAUAUAAAAG [hsa-mir-3910-2],-0.556
14,CUUUUGGAAAAUAGAAAAG [hsa-mir-3184],-0.24
15,CUUUUGUUCAAAUAAAAAUGCAAAAG [hsa-mir-651],-0.729
16,CUUUUUGCCACCUGAGCACAGUCAGCAGUCAGCAUAAAA [hsa-mir-4275],0.6
17,CUUUUUGCUGAUGGAGGGUCUUGCCUCCAUGGGGAUGGCUG [hsa-mir-4502],0.828
18,GAAAAAUCCCUGUUAACUUUC [hsa-mir-6833],-0.143
19,GAAAACUUUGGAGAAAAAUUUUC [hsa-mir-4659a],-0.765

# Test system: TO-N3 (biotin conjugate)
# Assay: as above
# Details: RNA library: Library-2
# How it was run: as §1
row,Sequence,pull-down binding Z-score
1,CUGUCUGUUGUCUAAGAAAAGAUCG [hsa-mir-517c_517b],-0.0242
2,CUGUGAAUCCAAGAUCCACA [hsa-mir-4527],-0.39
3,CUGUGACGUGCUCCAUCACCGGGCAG [hsa-mir-3714],-0.0254
4,CUGUGAGGACAUCCAGGGUCACAG [hsa-mir-125a],0.903
5,CUGUGAUAACAACUCAG [hsa-mir-4705],0.29
6,CUGUGCAGAACAUCCGCUCACCUGUACAG [hsa-mir-214],0.0753
7,CUGUGCAGGGCCAACUGUGCACAC [hsa-mir-3681],1.15
8,CUGUGCUGUCUCUGAGCACCG [hsa-mir-6827],0.322
9,CUGUGGCCGGUCCCAG [hsa-mir-4656],1.45
10,CUGUGGUCUAACCUUUCCCAUCU [hsa-mir-6828],0.169
11,CUGUGGUGGCUGCUCAUGCACCACGG [hsa-mir-105-1],-1.05
12,CUGUGGUGGCUGCUUAUGCACCACGG [hsa-mir-105-2],0.363
13,CUGUGGUUUGCUGGCUGCCUCAG [hsa-mir-6736],0.467
14,CUGUGUGAGGACUAGAGGCGG [hsa-mir-4523],0.511
15,CUGUUCAGGACAAUGCCGUUGUACA [hsa-mir-199a-2],0.16
16,CUGUUCAGGACUCCCAAAUUGUACAG [hsa-mir-199b],1
17,CUGUUCAGGAGGCUCUCAAUGUGUACA [hsa-mir-199a-1],0.947
18,CUGUUGAAAGAAAAG [hsa-mir-526a-2],1.01
19,CUGUUGUGCCUAAUUCAGAG [hsa-mir-296],0.0489

row,Sequence,pull-down binding Z-score
1,CUGUUGUUUCAGCUCGACAACAACAG [hsa-mir-3937],-0.333
2,CUGUUUCUGGUGAAAUAUUCAAACAG [hsa-mir-4433a],-0.0687
3,CUGUUUGUUGUCUGAGAAAAAACA [hsa-mir-520g_520h],-0.598
4,CUUAAGUGGUUCGGGUAAAUCACUUUAA [hsa-mir-3977],-0.623
5,CUUAAUAGAUUAAUAUUUGUAAG [hsa-mir-506],-0.877
6,CUUACUGCCCGGGCCGCCCUCAGUAA [hsa-mir-212],1.17
7,CUUACUGUACACGUGGCUGGCAAG [hsa-mir-4428],0.588
8,CUUAGAUUUUUCCAUCUUUGUAUCUAG [hsa-mir-29b-2],-0.995
9,CUUAGUAGGUGAUAGCAUGACUGAC [hsa-mir-5002],0.958
10,CUUCACUGGUGCAGUAAGAAG [hsa-mir-7853],-0.253
11,CUUCAGAGCAGGGUUUGGUCUGUGCUUCUCUG [hsa-mir-6719],-0.222
12,CUUCAGCCCCAGGAAGCCUUGGUCGGGGGCAGGAG [hsa-mir-647],0.594
13,CUUCCCAUUUAAAAGUAAUGGCACA [hsa-mir-603],0.861
14,CUUCCUGAGCACGCUCAUGAUGAGCAAACUGAGCCUCUAAG [hsa-mir-3653],0.596
15,CUUCGCGCUAGUUUGUUUGUGUUAAG [hsa-mir-6077],-0.0943
16,CUUCGGUAUUCAUCAAAAAUACCAAAG [hsa-mir-4735],-1.08
17,CUUCUGCUUCCUCUUAGCGCAGGAG [hsa-mir-1914],-0.751
18,CUUCUUACUGCACCAGUGAAG [hsa-mir-5683],-0.0796

# Reference: the supplement of paper PMC11865577
